In US20190309079A1 (Regeneron, published 2019):

How the values were obtained:
human LEPR Ig (D3)-MMH = target: T1, human LEPR Ig (D3)-MMH (human, UniProt P48357 340-427, limits assumed); experiment: Luminex, myc-captured protein on beads
T1 construct: domain: Ig (D3)
T1 sequence (looked up): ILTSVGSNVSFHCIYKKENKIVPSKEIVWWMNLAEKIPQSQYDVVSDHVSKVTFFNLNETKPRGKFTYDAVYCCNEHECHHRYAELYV
Protocol: (§1) Aliquots of microspheres with immobilized anti-myc monoclonal antibodies, prepared as described above, were added individually to 1 mL of the each of these protein supernatants. The microspheres were gently mixed, incubated for two hours at 25° C., washed twice with 1 mL of DBPS, centrifuged to remove the supernatant and finally resuspended in 1 mL of DPBS buffer. […] of anti-myc IgG coupled microspheres from individual reactions with full length human LEPR and with each of the human LEPR domain proteins were withdrawn and mixed together in 3.6 mL of PBS+20 mg/mL BSA+0.05% sodium azide (blocking buffer).
(§2) From this mixed pool, 75 μL of microspheres were plated per well on a 96 well filter plate (Millipore, Cat. No: MSBVN1250) and mixed with 25 μL of individual anti-human LEPR monoclonal antibodies (0.5 or 5 μg/mL), incubated for two hours at 25° C. and then washed twice with 200 μL of DPBS with 0.05% Tween 20 (washing buffer). […] After 30 minutes, the samples were washed twice with 200 µL of washing buffer and resuspended in 150 μL of wash buffer. The Median Fluorescence intensity (MFI) of the microspheres was measured in a Luminex Analyzer.

[1] = target: T2, human LEPR CRH1-Ig (D2,D3)-MMH (human, UniProt P48357 230-427, limits assumed); experiment: Luminex, myc-captured protein on beads
T2 construct: domain: CRH1-Ig (D2,D3)
T2 sequence (looked up): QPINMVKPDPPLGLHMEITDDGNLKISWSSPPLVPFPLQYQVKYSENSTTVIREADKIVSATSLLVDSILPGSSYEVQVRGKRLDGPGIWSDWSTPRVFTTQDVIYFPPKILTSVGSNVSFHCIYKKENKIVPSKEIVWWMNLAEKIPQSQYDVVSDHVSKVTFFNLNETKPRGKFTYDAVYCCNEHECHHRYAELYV
Protocol: as §1, §2

Row | Binder | Luminex MFI (human LEPR Ig (D3)-MMH) [MFI] | Luminex MFI [1] [MFI]
1 | H4H18482P2 (antibody, human IgG4, V domains shown, human IgG4 Fc) VH: QVQLQESGPGLVKPSQTLSLTCTVSGGSISSGNYYWNWIRQQPGEGLEWIAYIYHNGVTNFNPSLKSRLTISVDTSKTQFSLKLRSVTAADTAVYYCARSGSWFENWYFDLWGRGTLVTVSS VL: not shown | 27 | 
2 | H4H18487P2 (antibody, V domains shown) VH: QVQLQESGPGLVKPSETLSLTCTVSGGSISNSYWSWIRQPPGKGLEWIGYVYSRGNTKYNPSLTSRVTMSFDTSKNQFSLKLRSVTAADTAVYYCARSSSWYEDWYFDLWGRGTLVTVSS VL: not shown | 22 | 62
3 | H4H18492P2 (antibody, V domains shown) VH: QVQLQQWGAGLFKPSETLSLTCDVYGGSFRGYYWSWIRQPPGKGLEWIGEISYSGFTNYNPSLKSRVIISIDTSKNQFSLKMSSVTAADTAVYYCARVTYGYGTFDYWGQGTLVTVSS VL: not shown | 19 | 8680
